{"source": "paper PMC3825817", "about": "(DNA repair, 2013)"}
{"biological_target": "T1, human DNA polymerase δ p125 catalytic subunit (human, UniProt P28340 1-1107)", "T1 sequence (looked up)": "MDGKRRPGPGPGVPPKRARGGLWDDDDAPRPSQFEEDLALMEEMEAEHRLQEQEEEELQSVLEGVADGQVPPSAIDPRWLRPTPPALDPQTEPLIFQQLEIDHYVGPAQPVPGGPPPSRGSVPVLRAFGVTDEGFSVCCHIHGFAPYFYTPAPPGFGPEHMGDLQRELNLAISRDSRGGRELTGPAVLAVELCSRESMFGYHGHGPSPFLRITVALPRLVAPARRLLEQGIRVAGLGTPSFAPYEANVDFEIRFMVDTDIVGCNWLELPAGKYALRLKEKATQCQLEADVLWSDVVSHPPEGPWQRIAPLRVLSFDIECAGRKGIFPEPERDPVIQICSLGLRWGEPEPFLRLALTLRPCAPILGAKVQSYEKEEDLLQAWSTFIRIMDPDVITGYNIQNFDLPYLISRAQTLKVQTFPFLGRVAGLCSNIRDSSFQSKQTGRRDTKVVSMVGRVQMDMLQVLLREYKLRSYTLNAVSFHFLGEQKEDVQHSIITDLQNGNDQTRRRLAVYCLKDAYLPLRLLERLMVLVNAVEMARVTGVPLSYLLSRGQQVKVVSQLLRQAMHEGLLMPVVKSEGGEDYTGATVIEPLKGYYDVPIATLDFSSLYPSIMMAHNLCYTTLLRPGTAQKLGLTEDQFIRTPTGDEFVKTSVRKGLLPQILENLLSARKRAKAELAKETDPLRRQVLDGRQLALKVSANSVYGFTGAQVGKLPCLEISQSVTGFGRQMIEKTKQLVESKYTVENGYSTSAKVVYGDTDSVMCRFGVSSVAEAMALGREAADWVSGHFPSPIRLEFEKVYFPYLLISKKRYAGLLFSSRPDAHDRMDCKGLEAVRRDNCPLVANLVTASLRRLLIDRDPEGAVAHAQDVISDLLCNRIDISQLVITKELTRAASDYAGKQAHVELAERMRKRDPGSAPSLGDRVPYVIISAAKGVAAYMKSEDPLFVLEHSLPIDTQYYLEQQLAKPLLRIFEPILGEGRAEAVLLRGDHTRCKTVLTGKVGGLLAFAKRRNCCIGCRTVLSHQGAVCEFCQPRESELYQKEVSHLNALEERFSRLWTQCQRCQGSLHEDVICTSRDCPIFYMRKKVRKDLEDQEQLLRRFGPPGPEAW", "experiment": "immunoaffinity co-purification, SDS-PAGE"}
{"binder": "human DNA polymerase δ p50 subunit (natural protein) not shown", "stoichiometry N": "~1"}
{"binder": "human DNA polymerase δ p12 subunit (natural protein, UniProt Q9HCU8 1-107, looked up) MGRKRLITDSYPVVKRREGPAGHSKGELAPELGEEPQPRDEEEAELELLRQFDLAWQYGPCTGITRLQRWCRAKQMGLEPPPEVWQVLKTHPGDPRFQCSLWHLYPL", "stoichiometry N": "~1"}
{"binder": "human DNA polymerase δ p68 subunit (natural protein, UniProt Q15054 1-466, looked up) MADQLYLENIDEFVTDQNKIVTYKWLSYTLGVHVNQAKQMLYDYVERKRKENSGAQLHVTYLVSGSLIQNGHSCHKVAVVREDKLEAVKSKLAVTASIHVYSIQKAMLKDSGPLFNTDYDILKSNLQNCSKFSAIQCAAAVPRAPAESSSSSKKFEQSHLHMSSETQANNELTTNGHGPPASKQVSQQPKGIMGMFASKAAAKTQETNKETKTEAKEVTNASAAGNKAPGKGNMMSNFFGKAAMNKFKVNLDSEQAVKEEKIVEQPTVSVTEPKLATPAGLKKSSKKAEPVKVLQKEKKRGKRVALSDDETKETENMRKKRRRIKLPESDSSEDEVFPDSPGAYEAESPSPPPPPSPPLEPVPKTEPEPPSVKSSSGENKRKRKRVLKSKTYLDGEGCIVTEKVYESESCTDSEEELNMKTSSVHRPPAMTVKKEPREERKGPKKGTAALGKANRQVSITGFFQRK", "stoichiometry N": "~1"}
